Measurements as given in patent publication US20210139602A1 (MEDABOME, published 2021).

Biological target: T1, rPODXL-v2-Del-Fc fusion protein (human, UniProt O00592-2 23-429, highly glycosylated)
T1 construct: extracellular domain; In-frame fusion of the ECD and human IgG1 Fc, expressed in CHO-K1; The two deletions are written as substitutions to '-'; not shown: human IgG1 Fc from the pFUSE-hIgG1-Fc1 expression vector (InvivoGen)
T1 sequence (looked up): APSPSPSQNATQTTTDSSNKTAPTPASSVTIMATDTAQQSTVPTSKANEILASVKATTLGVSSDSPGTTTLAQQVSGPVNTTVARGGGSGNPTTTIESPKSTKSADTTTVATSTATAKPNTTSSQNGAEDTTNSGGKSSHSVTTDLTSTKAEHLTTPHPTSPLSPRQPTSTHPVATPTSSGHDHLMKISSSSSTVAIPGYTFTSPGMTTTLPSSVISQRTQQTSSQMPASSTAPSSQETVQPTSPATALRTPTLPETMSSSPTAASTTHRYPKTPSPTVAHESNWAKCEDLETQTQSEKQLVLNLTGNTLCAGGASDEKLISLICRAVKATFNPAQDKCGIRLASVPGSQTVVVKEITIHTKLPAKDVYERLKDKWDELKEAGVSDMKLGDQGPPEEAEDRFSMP
Assay: BLI (Octet QKe), mAb captured on anti-mouse IgG Fc (AMC) biosensors, antigen in 1:2 serial dilutions
Method: The Octet® QKe System (Molecular Devices, San Jose, Calif.) was used to determine the binding affinities between MAI1738 mAb and the extracellular domains of PODXL-v2 and PODXL-v2-Del. The MAI1738 mAb was immobilized to the Anti-Mouse IgG Fc Capture (AMC) biosensors, followed by loading of the antigen, rPODXL-v2-Fc or rPODXL-v2-Del-Fc, at 1:2 serial dilutions for 5 minutes. The assay was repeated multiple times to determine the average range of the affinity between MAI1738 and rPODXL-v2-Fc or rPODXL-v2-Del-Fc.

Kd: 1.58 nM
B1: MAI1738 mAb (antibody, V domains shown)
VH: EVKLVESGGGLVKPGGSLKVSCAASGFTFSTYTMSWVRQTPEKRLEWVATISGGVIYTYYPDSVKGRFTISRDDAKNTLYLQMSSLRSEDTALYYCARHYSNYEGQGMDSWGQGTSVTVSS
VL: DIVLTQSPVTLSVTPGDSVSLSCRASQSINNNLHWYQQKSHESPRLLIKYASQSISGIPPRFSGSRSGTDFTLSINTVETEDFGVYFCQQSNSWPLTFGAGTKLELKR
notes: Mouse monoclonal antibody from a hybridoma (A/J mice); it is detected with anti-mouse IgG-Fc; also called anti-PODXL-v2 monoclonal antibody; second subclone of MS17-38
